Drawing on patent publication US7935795 (EVEC, dated 2011), this text covers Kd for one molecule.

As usually defined, the Kd is the constant that tells how readily two partners part at equilibrium.

This assay concerns the target T1, recombinant human granulocyte-macrophage colony stimulating factor (hGM-CSF) (human, UniProt P04141 18-144).
T1 construct: also called recombinant GM-CSF; recombinant hGM-CSF
Nature of the assay: BIAcore, antibody immobilised on sensor chip, recombinant hGM-CSF as analyte. As to the method:
Affinity analysis was conducted on the anti-hGM-CSF antibody applying BIAcore® system (FIG. 4). In the method, the antibody (purified antibody) was immobilized to a sensor chip, and then an antigen (recombinant) was added to the surface of the immobilized antibody, so that the interaction between antibody and an antigen was measured. A purified antibody was applied to the antibody, and a recombinant hGM-CSF was applied to the antigen. A mouse anti-GM-CSF monoclonal antibody (commercially available) (R&D) was applied to a positive control, and a purified anti-human cytomegalovirus monoclonal antibody was applied to a negative control. After the analysis, it turned out that antigen-antibody interaction was not detected in the negative control. In the positive control, dissociation constant of 6.1×10^-9 M is shown as the affinity. The affinity of the anti-GM-CSF antibody obtained was 2.1×10^-10 M (FIG. 5).

T1 sequence (P04141 18-144 limits assumed): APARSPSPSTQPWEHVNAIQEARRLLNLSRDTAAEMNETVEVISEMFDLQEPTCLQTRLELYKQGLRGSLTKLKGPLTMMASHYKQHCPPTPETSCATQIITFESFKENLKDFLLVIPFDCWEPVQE

B1: anti-hGM-CSF human monoclonal antibody J158 4C (antibody, human IgG1, kappa, V domains shown)
VH: LVQLVQSEAEVKKPGASVRISCRTSGYIFPTFALHWVRQAPGQSLEWVGSINTASGKTKFSTKFQDRLTLSSNTSATTVYMDLSGLTLDDTALYYCARDRFQNIMATILDVWGQGTLVTVSS
VL: DIVLTQSPGTLSLSPGERVTVSCRASHRVSSNYLAWYQQRPGQSPRLLIFGASNRATGVPDRFSGSGSGTDFALTISRLEPDDFAVYYCQQYASSPVTFGGGTKLEIKR
notes: also called anti-hGM-CSF antibody; anti-GM-CSF antibody
Turning to B1, the dissociation constant Kd was determined as 210 pM.
